Source: the Human Domainome abundance scans (Beltran et al. 2025)
± gives the uncertainty stated by the source.

B1: Gamma-crystallin C, residues 4 to 79; numbered along this chain, P07315 (parent)
chain: ITFYEDRAFQGRSYETTTDCPNLQPYFSRCNSIRVESGCWMLYERPNYQGQQYLLRRGEYPDYQQWMGLSDSIRSC

Variants of: B1
Experiment: abundance fitness (aPCA) (normalised: wild type 0, dead -1); higher = more abundant; growth selection in yeast, the domain comes from the species named
Conditions: Homo sapiens

**Q.** Which abundance fitness does the source give for ITFYEDRAFQGRSYETTTDCPNLQPYFSRCNSIRVESGCWMLYERPNYQGQQYLLRRGEYPDYCQWMGLSDSIRSC [Q64C] here?
**A.** 0.062 ± 0.096

**Q.** With ITFYEDRAFQGRSYETTTDCPNLQPYFSRCNSIRVESGCWMLYERPNYQGQQYLLRRGEYPDYEQWMGLSDSIRSC [Q64E] as the variant, how does the abundance fitness read?
**A.** 0.024 ± 0.083

**Q.** For ITFYEDRAFQGRSYETTTDCPNLQPYFSRCNSIRVESGCWMLYERPNYQGQQYLLRRGEYPDYPQWMGLSDSIRSC [Q64P], which abundance fitness is on record?
**A.** -0.013 ± 0.085

**Q.** Which abundance fitness does the source give for ITFYEDRAFQGRSYETTTDCPNLQPYFSRCNSIRVESGCWMLYERPNYQGQQYLLRRGEYPDYTQWMGLSDSIRSC [Q64T] here?
**A.** -0.004 ± 0.092

**Q.** With ITFYEDRAFQGRSYETTTDCPNLQPYFSRCNSIRVESGCWMLYERPNYQGQQYLLRRGEYPDYIQWMGLSDSIRSC [Q64I] as the variant, how does the abundance fitness read?
**A.** -0.039 ± 0.12

**Q.** Which abundance fitness does the source give for ITFYEDRAFQGRSYETTTDCPNLQPYFSRCNSIRVESGCWMLYERPNYQGQQYLLRRGEYPDYAQWMGLSDSIRSC [Q64A] here?
**A.** -0.08 ± 0.056

**Q.** Which abundance fitness does the source give for ITFYEDRAFQGRSYETTTDCPNLQPYFSRCNSIRVESGCWMLYERPNYQGQQYLLRRGEYPDYNQWMGLSDSIRSC [Q64N] here?
**A.** 0.044 ± 0.082

**Q.** Which abundance fitness does the source give for ITFYEDRAFQGRSYETTTDCPNLQPYFSRCNSIRVESGCWMLYERPNYQGQQYLLRRGEYPDYSQWMGLSDSIRSC [Q64S] here?
**A.** -0.188 ± 0.082

**Q.** Which abundance fitness does the source give for ITFYEDRAFQGRSYETTTDCPNLQPYFSRCNSIRVESGCWMLYERPNYQGQQYLLRRGEYPDYKQWMGLSDSIRSC [Q64K] here?
**A.** -0.042 ± 0.12

**Q.** Which abundance fitness does the source give for ITFYEDRAFQGRSYETTTDCPNLQPYFSRCNSIRVESGCWMLYERPNYQGQQYLLRRGEYPDYMQWMGLSDSIRSC [Q64M] here?
**A.** -0.101 ± 0.081

**Q.** Which abundance fitness does the source give for ITFYEDRAFQGRSYETTTDCPNLQPYFSRCNSIRVESGCWMLYERPNYQGQQYLLRRGEYPDYHQWMGLSDSIRSC [Q64H] here?
**A.** 0.155 ± 0.19

**Q.** For ITFYEDRAFQGRSYETTTDCPNLQPYFSRCNSIRVESGCWMLYERPNYQGQQYLLRRGEYPDYLQWMGLSDSIRSC [Q64L], which abundance fitness is on record?
**A.** -0.081 ± 0.06

**Q.** For ITFYEDRAFQGRSYETTTDCPNLQPYFSRCNSIRVESGCWMLYERPNYQGQQYLLRRGEYPDYFQWMGLSDSIRSC [Q64F], which abundance fitness is on record?
**A.** -0.09 ± 0.12

**Q.** For ITFYEDRAFQGRSYETTTDCPNLQPYFSRCNSIRVESGCWMLYERPNYQGQQYLLRRGEYPDYGQWMGLSDSIRSC [Q64G], which abundance fitness is on record?
**A.** -0.045 ± 0.059

**Q.** With ITFYEDRAFQGRSYETTTDCPNLQPYFSRCNSIRVESGCWMLYERPNYQGQQYLLRRGEYPDLQQWMGLSDSIRSC [Y63L] as the variant, how does the abundance fitness read?
**A.** -0.097 ± 0.076

**Q.** For ITFYEDRAFQGRSYETTTDCPNLQPYFSRCNSIRVESGCWMLYERPNYQGQQYLLRRGEYPDVQQWMGLSDSIRSC [Y63V], which abundance fitness is on record?
**A.** -0.103 ± 0.054

**Q.** Which abundance fitness does the source give for ITFYEDRAFQGRSYETTTDCPNLQPYFSRCNSIRVESGCWMLYERPNYQGQQYLLRRGEYPDQQQWMGLSDSIRSC [Y63Q] here?
**A.** -0.12 ± 0.093

**Q.** With ITFYEDRAFQGRSYETTTDCPNLQPYFSRCNSIRVESGCWMLYERPNYQGQQYLLRRGEYPDIQQWMGLSDSIRSC [Y63I] as the variant, how does the abundance fitness read?
**A.** -0.028 ± 0.099

**Q.** For ITFYEDRAFQGRSYETTTDCPNLQPYFSRCNSIRVESGCWMLYERPNYQGQQYLLRRGEYPDPQQWMGLSDSIRSC [Y63P], which abundance fitness is on record?
**A.** 0.094 ± 0.092

**Q.** For ITFYEDRAFQGRSYETTTDCPNLQPYFSRCNSIRVESGCWMLYERPNYQGQQYLLRRGEYPDTQQWMGLSDSIRSC [Y63T], which abundance fitness is on record?
**A.** -0.113 ± 0.086

**Q.** For ITFYEDRAFQGRSYETTTDCPNLQPYFSRCNSIRVESGCWMLYERPNYQGQQYLLRRGEYPDSQQWMGLSDSIRSC [Y63S], which abundance fitness is on record?
**A.** -0.06 ± 0.083

**Q.** For ITFYEDRAFQGRSYETTTDCPNLQPYFSRCNSIRVESGCWMLYERPNYQGQQYLLRRGEYPDRQQWMGLSDSIRSC [Y63R], which abundance fitness is on record?
**A.** -0.049 ± 0.05

**Q.** With ITFYEDRAFQGRSYETTTDCPNLQPYFSRCNSIRVESGCWMLYERPNYQGQQYLLRRGEYPDFQQWMGLSDSIRSC [Y63F] as the variant, how does the abundance fitness read?
**A.** 0.032 ± 0.19

**Q.** With ITFYEDRAFQGRSYETTTDCPNLQPYFSRCNSIRVESGCWMLYERPNYQGQQYLLRRGEYPDDQQWMGLSDSIRSC [Y63D] as the variant, how does the abundance fitness read?
**A.** -0.067 ± 0.12

**Q.** Which abundance fitness does the source give for ITFYEDRAFQGRSYETTTDCPNLQPYFSRCNSIRVESGCWMLYERPNYQGQQYLLRRGEYPDEQQWMGLSDSIRSC [Y63E] here?
**A.** -0.146 ± 0.079

**Q.** For ITFYEDRAFQGRSYETTTDCPNLQPYFSRCNSIRVESGCWMLYERPNYQGQQYLLRRGEYPDAQQWMGLSDSIRSC [Y63A], which abundance fitness is on record?
**A.** -0.115 ± 0.062

**Q.** For ITFYEDRAFQGRSYETTTDCPNLQPYFSRCNSIRVESGCWMLYERPNYQGQQYLLRRGEYPDMQQWMGLSDSIRSC [Y63M], which abundance fitness is on record?
**A.** -0.12 ± 0.062

**Q.** Which abundance fitness does the source give for ITFYEDRAFQGRSYETTTDCPNLQPYFSRCNSIRVESGCWMLYERPNYQGQQYLLRRGEYPDNQQWMGLSDSIRSC [Y63N] here?
**A.** -0.088 ± 0.21

**Q.** With ITFYEDRAFQGRSYETTTDCPNLQPYFSRCNSIRVESGCWMLYERPNYQGQQYLLRRGEYPDGQQWMGLSDSIRSC [Y63G] as the variant, how does the abundance fitness read?
**A.** -0.041 ± 0.067

**Q.** For ITFYEDRAFQGRSYETTTDCPNLQPYFSRCNSIRVESGCWMLYERPNYQGQQYLLRRGEYPDWQQWMGLSDSIRSC [Y63W], which abundance fitness is on record?
**A.** -0.126 ± 0.073

**Q.** With ITFYEDRAFQGRSYETTTDCPNLQPYFSRCNSIRVESGCWMLYERPNYQGQQYLLRRGEYPDHQQWMGLSDSIRSC [Y63H] as the variant, how does the abundance fitness read?
**A.** -0.234 ± 0.15

**Q.** Which abundance fitness does the source give for ITFYEDRAFQGRSYETTTDCPNLQPYFSRCNSIRVESGCWMLYERPNYQGQQYLLRRGEYPSYQQWMGLSDSIRSC [D62S] here?
**A.** -0.071 ± 0.085

**Q.** With ITFYEDRAFQGRSYETTTDCPNLQPYFSRCNSIRVESGCWMLYERPNYQGQQYLLRRGEYPVYQQWMGLSDSIRSC [D62V] as the variant, how does the abundance fitness read?
**A.** -0.015 ± 0.06

**Q.** For ITFYEDRAFQGRSYETTTDCPNLQPYFSRCNSIRVESGCWMLYERPNYQGQQYLLRRGEYPYYQQWMGLSDSIRSC [D62Y], which abundance fitness is on record?
**A.** -0.037 ± 0.12

**Q.** For ITFYEDRAFQGRSYETTTDCPNLQPYFSRCNSIRVESGCWMLYERPNYQGQQYLLRRGEYPTYQQWMGLSDSIRSC [D62T], which abundance fitness is on record?
**A.** -0.055 ± 0.097

**Q.** Which abundance fitness does the source give for ITFYEDRAFQGRSYETTTDCPNLQPYFSRCNSIRVESGCWMLYERPNYQGQQYLLRRGEYPWYQQWMGLSDSIRSC [D62W] here?
**A.** 0.059 ± 0.087
